Measurements taken from patent US20140087995A1 (published 2014).
Residue numbers refer to the chain shown, from its start. Numbered stars: 1 amine (or outer) side, 2 acyl side, 3 side chain; on linkers, the order of the positions; unused ones are H or OH. Bridge positions count the residues as written; N and C are the ends. * marks the point of attachment. C20 diacid = O=C(O)CCCCCCCCCCCCCCCCCCC(=O)*; γGlu = O=C(O)[C@H](CCC(=O)[*:2])N[*:1]; AEEA = NCCOCCOCC(=O)O

T1: human amylin receptor (amylin 3(a) receptor: human calcitonin receptor with RAMP-3) (human, UniProt P30988 25-474; O60896 24-148)
T1 sequence (looked up) 1: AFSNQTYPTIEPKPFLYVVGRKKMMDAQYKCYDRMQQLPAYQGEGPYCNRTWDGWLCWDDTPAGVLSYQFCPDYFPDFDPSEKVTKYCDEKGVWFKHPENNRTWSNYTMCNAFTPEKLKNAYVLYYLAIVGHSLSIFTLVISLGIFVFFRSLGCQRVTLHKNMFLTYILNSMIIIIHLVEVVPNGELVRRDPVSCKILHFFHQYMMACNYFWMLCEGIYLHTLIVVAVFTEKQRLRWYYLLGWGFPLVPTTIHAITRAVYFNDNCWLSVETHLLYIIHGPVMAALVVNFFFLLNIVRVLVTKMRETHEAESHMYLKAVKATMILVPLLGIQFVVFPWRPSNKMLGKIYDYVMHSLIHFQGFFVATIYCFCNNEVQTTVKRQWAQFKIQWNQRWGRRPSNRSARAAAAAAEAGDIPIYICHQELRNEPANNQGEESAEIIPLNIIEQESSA
T1 sequence (looked up) 2: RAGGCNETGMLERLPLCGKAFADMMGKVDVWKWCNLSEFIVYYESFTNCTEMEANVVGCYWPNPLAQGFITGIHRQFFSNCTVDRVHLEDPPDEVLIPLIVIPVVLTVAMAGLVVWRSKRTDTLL

T2: human calcitonin receptor (human, UniProt P30988 25-474)
T2 sequence (looked up): T1 sequence (looked up) 1

B1: N^α1-[(4S)-4-carboxy-4-(19-carboxynonadecanoylamino)butanoyl]-[Arg17,Pro21,Pro27,Glu35]-h-amylin (peptide)
peptide: KCNTATCATQRLANFLRHSSPNFGAIPSSTNVGSETY
modifications: C20 diacid-gGlu on the alpha amino group of the N-terminal residue; disulfide bridge Cys2-Cys7; C-terminal amide
notes: also called compound 23
B2: N^α1-[(4S)-4-carboxy-4-(19-carboxynonadecanoylamino)butanoyl]-[Arg17,Pro21,Pro27,Lys35]-h-amylin (peptide)
peptide: B1 peptide with E35K
modifications: C20 diacid-gGlu on the alpha amino group of the N-terminal residue; disulfide bridge Cys2-Cys7; C-terminal amide
notes: also called compound 34
B3: N^α1-[2-[2-[2-[[2-[2-[2-[[(4S)-4-carboxy-4-(19-carboxynonadecanoylamino)butanoyl]amino]ethoxy]ethoxy]acetyl]amino]ethoxy]ethoxy]acetyl]-[Arg17,Pro21,Pro27]-h-am … (peptide)
peptide: B1 peptide with E35N
modifications: C20 diacid-gGlu-2xOEG on the alpha amino group of the N-terminal residue; disulfide bridge Cys2-Cys7; C-terminal amide
notes: also called compound 24
B4: N^α1-[(4S)-4-carboxy-4-(19-carboxynonadecanoylamino)butanoyl]-[Arg17,Pro21,Pro27,Pro31,Glu35]-h-amylin (peptide)
peptide: {C20 diacid-γGlu}-KCNTATCATQRLANFLRHSSPNFGAIPSSTPVGSETY-NH2
modifications: disulfide 2-7
SMILES: CC[C@H](C)[C@H](NC(=O)[C@H](C)NC(=O)CNC(=O)[C@H](Cc1ccccc1)NC(=O)[C@H](CC(N)=O)NC(=O)[C@@H]1CCCN1C(=O)[C@H](CO)NC(=O)[C@H](CO)NC(=O)[C@H](Cc1c[nH]cn1)NC(=O)[C@H](CCCNC(=N)N)NC(=O)[C@H](CC(C)C)NC(=O)[C@H](Cc1ccccc1)NC(=O)[C@H](CC(N)=O)NC(=O)[C@H](C)NC(=O)[C@H](CC(C)C)NC(=O)[C@H](CCCNC(=N)N)NC(=O)[C@H](CCC(N)=O)NC(=O)[C@@H](NC(=O)[C@H](C)NC(=O)[C@@H]1CSSC[C@H](NC(=O)[C@H](CCCCN)NC(=O)CC[C@H](NC(=O)CCCCCCCCCCCCCCCCCCC(=O)O)C(=O)O)C(=O)N[C@@H](CC(N)=O)C(=O)N[C@@H]([C@@H](C)O)C(=O)N[C@@H](C)C(=O)N[C@@H]([C@@H](C)O)C(=O)N1)[C@@H](C)O)C(=O)N1CCC[C@H]1C(=O)N[C@@H](CO)C(=O)N[C@@H](CO)C(=O)N[C@H](C(=O)N1CCC[C@H]1C(=O)N[C@H](C(=O)NCC(=O)N[C@@H](CO)C(=O)N[C@@H](CCC(=O)O)C(=O)N[C@H](C(=O)N[C@@H](Cc1ccc(O)cc1)C(N)=O)[C@@H](C)O)C(C)C)[C@@H](C)O
notes: also called compound 28
B5: N^α1-[2-[2-[2-[[2-[2-[2-[[(4S)-4-carboxy-4-(19-carboxynonadecanoylamino)butanoyl]amino]ethoxy]ethoxy]acetyl]amino]ethoxy]ethoxy]acetyl]-[Glu14,Arg17,Pro21,Pro27 … (peptide)
peptide: {C20 diacid-γGlu-AEEA-AEEA}-KCNTATCATQRLAEFLRHSSPNFGAIPSSTNVGSNTP-NH2
modifications: disulfide 2-7
SMILES: CC[C@H](C)[C@H](NC(=O)[C@H](C)NC(=O)CNC(=O)[C@H](Cc1ccccc1)NC(=O)[C@H](CC(N)=O)NC(=O)[C@@H]1CCCN1C(=O)[C@H](CO)NC(=O)[C@H](CO)NC(=O)[C@H](Cc1c[nH]cn1)NC(=O)[C@H](CCCNC(=N)N)NC(=O)[C@H](CC(C)C)NC(=O)[C@H](Cc1ccccc1)NC(=O)[C@H](CCC(=O)O)NC(=O)[C@H](C)NC(=O)[C@H](CC(C)C)NC(=O)[C@H](CCCNC(=N)N)NC(=O)[C@H](CCC(N)=O)NC(=O)[C@@H](NC(=O)[C@H](C)NC(=O)[C@@H]1CSSC[C@H](NC(=O)[C@H](CCCCN)NC(=O)COCCOCCNC(=O)COCCOCCNC(=O)CC[C@H](NC(=O)CCCCCCCCCCCCCCCCCCC(=O)O)C(=O)O)C(=O)N[C@@H](CC(N)=O)C(=O)N[C@@H]([C@@H](C)O)C(=O)N[C@@H](C)C(=O)N[C@@H]([C@@H](C)O)C(=O)N1)[C@@H](C)O)C(=O)N1CCC[C@H]1C(=O)N[C@@H](CO)C(=O)N[C@@H](CO)C(=O)N[C@H](C(=O)N[C@@H](CC(N)=O)C(=O)N[C@H](C(=O)NCC(=O)N[C@@H](CO)C(=O)N[C@@H](CC(N)=O)C(=O)N[C@H](C(=O)N1CCC[C@H]1C(N)=O)[C@@H](C)O)C(C)C)[C@@H](C)O
notes: also called compound 20

Target: T1, human amylin receptor (amylin 3(a) …)
Test: cell-based or functional assay

hAmylin-R funct. EC50 | Binder
0.34 nM | B1
0.313 nM | B2
0.433 nM | B3
0.22 nM | B4
0.08 nM | B5

Target: T2, human calcitonin receptor
Test: cell-based or functional assay

Ratio hCT/hAmylin funct. | hCTR funct. EC50 | Binder
8.9 | 3.02 nM | B1
8.4 | 2.62 nM | B2
23.1 | 10 nM | B3
9.2 | 2.03 nM | B4
3.6 | 0.285 nM | B5
